Data from patent US20220056092A1.
Blank lines part the entries; values can stand above or below the substance they belong to.

Target: IL12 receptor on bystander (GFP+) T cells (human) (UniProt P42701)
Assay: cell-based or functional assay

Sequence of IL12 receptor on bystander (GFP+) T cells (human) (Q99665 24-862, chain 2 of 2, other chains not shown): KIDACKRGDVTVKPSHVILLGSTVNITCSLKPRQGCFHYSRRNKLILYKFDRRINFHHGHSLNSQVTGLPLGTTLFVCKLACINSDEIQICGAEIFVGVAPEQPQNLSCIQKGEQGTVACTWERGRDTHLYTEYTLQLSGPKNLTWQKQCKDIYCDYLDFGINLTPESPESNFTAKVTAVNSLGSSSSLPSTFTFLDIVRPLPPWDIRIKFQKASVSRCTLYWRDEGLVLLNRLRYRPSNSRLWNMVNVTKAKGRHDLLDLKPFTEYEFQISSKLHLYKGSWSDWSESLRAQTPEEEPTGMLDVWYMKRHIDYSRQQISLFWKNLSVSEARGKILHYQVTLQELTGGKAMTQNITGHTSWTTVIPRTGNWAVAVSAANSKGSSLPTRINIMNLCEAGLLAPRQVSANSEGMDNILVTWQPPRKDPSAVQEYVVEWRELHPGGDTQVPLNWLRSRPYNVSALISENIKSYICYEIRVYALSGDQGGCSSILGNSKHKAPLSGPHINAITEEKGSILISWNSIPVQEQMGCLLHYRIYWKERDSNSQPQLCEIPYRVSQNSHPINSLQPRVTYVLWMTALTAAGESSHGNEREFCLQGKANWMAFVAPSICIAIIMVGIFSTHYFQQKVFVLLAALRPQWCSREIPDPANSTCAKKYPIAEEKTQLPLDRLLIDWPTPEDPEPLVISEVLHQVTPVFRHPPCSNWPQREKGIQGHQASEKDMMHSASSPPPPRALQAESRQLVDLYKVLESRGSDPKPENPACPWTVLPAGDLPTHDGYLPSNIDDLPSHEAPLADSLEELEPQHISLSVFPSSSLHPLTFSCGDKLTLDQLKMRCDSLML
Sequence of secreted IL12 encoded by OT-001356 (ORF2: p40 signal sequence; p40 (23-328 of WT); Linker ((G4S)3); p35 (57-253 of WT); BamHI (GS)) (ligand) (chain): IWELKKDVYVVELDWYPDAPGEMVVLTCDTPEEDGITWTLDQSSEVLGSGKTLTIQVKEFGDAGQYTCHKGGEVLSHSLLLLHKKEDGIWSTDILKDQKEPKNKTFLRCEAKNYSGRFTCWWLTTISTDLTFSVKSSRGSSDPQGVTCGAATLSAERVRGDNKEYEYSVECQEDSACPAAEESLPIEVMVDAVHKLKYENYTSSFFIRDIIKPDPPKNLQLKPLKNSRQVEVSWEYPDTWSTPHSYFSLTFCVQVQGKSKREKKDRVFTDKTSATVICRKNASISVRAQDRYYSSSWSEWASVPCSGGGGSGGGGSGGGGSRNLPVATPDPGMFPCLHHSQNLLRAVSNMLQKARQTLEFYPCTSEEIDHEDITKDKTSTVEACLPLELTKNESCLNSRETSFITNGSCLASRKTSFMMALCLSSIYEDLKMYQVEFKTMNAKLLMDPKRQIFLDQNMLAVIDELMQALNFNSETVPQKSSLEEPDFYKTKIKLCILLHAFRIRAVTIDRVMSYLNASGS

Bystander effect (pSTAT4 geometric MFI on GFP+ T cells in 1 hour supernatants), ratio 1.5 (geometric MFI): -59
Bystander effect (pSTAT4 geometric MFI on GFP+ T cells in 1 hour supernatants), ratio 2.9 (geometric MFI): 852
Bystander effect (pSTAT4 geometric MFI on GFP+ T cells in 1 hour supernatants), ratio 5.9 (geometric MFI): 437
Bystander effect (pSTAT4 geometric MFI on GFP+ T cells in 1 hour supernatants), ratio 11.8 (geometric MFI): -58
Bystander effect (pSTAT4 geometric MFI on GFP+ T cells in 1 hour supernatants), ratio 23.6 (geometric MFI): -1010
Bystander effect (pSTAT4 geometric MFI on GFP+ T cells in 1 hour supernatants), ratio 47.1 (geometric MFI): -4240
Transactivation (pSTAT4 geometric MFI on GFP+ cells in co-culture), ratio 1.5 (geometric MFI): 4660
Transactivation (pSTAT4 geometric MFI on GFP+ cells in co-culture), ratio 2.9 (geometric MFI): 6540
Transactivation (pSTAT4 geometric MFI on GFP+ cells in co-culture), ratio 5.9 (geometric MFI): 7210
Transactivation (pSTAT4 geometric MFI on GFP+ cells in co-culture), ratio 11.8 (geometric MFI): 7660
Transactivation (pSTAT4 geometric MFI on GFP+ cells in co-culture), ratio 23.6 (geometric MFI): 7630
Transactivation (pSTAT4 geometric MFI on GFP+ cells in co-culture); table head says ratio of 64, paragraph 725 gives 47.1 (geometric MFI): 5460
Substance: membrane bound IL12 encoded by OT-002111 (B7.1 TM domain and B7.1 C2 domain as a hinge domain) (ligand)

Bystander effect (pSTAT4 geometric MFI on GFP+ T cells in 1 hour supernatants), CAR-IL12+:GFP+ ratio 73.9 (geometric MFI): -2620
Bystander effect (pSTAT4 geometric MFI on GFP+ T cells in 1 hour supernatants), ratio 2.3 (geometric MFI): -1090
Bystander effect (pSTAT4 geometric MFI on GFP+ T cells in 1 hour supernatants), ratio 4.6 (geometric MFI): -518
Bystander effect (pSTAT4 geometric MFI on GFP+ T cells in 1 hour supernatants), ratio 9.2 (geometric MFI): -86
Bystander effect (pSTAT4 geometric MFI on GFP+ T cells in 1 hour supernatants), ratio 18.5 (geometric MFI): -226
Bystander effect (pSTAT4 geometric MFI on GFP+ T cells in 1 hour supernatants), ratio 37 (geometric MFI): -1400
Transactivation (pSTAT4 geometric MFI on GFP+ cells in co-culture), ratio 2.3 (geometric MFI): 2840
Transactivation (pSTAT4 geometric MFI on GFP+ cells in co-culture), ratio 4.6 (geometric MFI): 4370
Transactivation (pSTAT4 geometric MFI on GFP+ cells in co-culture), ratio 9.2 (geometric MFI): 5570
Transactivation (pSTAT4 geometric MFI on GFP+ cells in co-culture), ratio 18.5 (geometric MFI): 6420
Transactivation (pSTAT4 geometric MFI on GFP+ cells in co-culture), ratio 37 (geometric MFI): 6940
Transactivation (pSTAT4 geometric MFI on GFP+ cells in co-culture); table head says CAR-IL12+:GFP+ ratio of 64, paragraph 725 gives 73.9 (geometric MFI): 6450
Substance: secreted IL12 encoded by OT-001356 (ORF2: p40 signal sequence; p40 (23-328 of WT); Linker ((G4S)3); p35 (57-253 of WT); BamHI (GS)) (ligand)

Bystander effect (pSTAT4 geometric MFI on GFP+ T cells in 1 hour supernatants), ratio 2.4 (geometric MFI): -642
Bystander effect (pSTAT4 geometric MFI on GFP+ T cells in 1 hour supernatants), ratio 4.7 (geometric MFI): -566
Bystander effect (pSTAT4 geometric MFI on GFP+ T cells in 1 hour supernatants), ratio 9.5 (geometric MFI): -1130
Bystander effect (pSTAT4 geometric MFI on GFP+ T cells in 1 hour supernatants), ratio 18.9 (geometric MFI): -1380
Bystander effect (pSTAT4 geometric MFI on GFP+ T cells in 1 hour supernatants), ratio 37.9 (geometric MFI): -2880
Bystander effect (pSTAT4 geometric MFI on GFP+ T cells in 1 hour supernatants), ratio 75.8 (geometric MFI): -3530
Transactivation (pSTAT4 geometric MFI on GFP+ cells in co-culture), ratio 2.4 (geometric MFI): 5190
Transactivation (pSTAT4 geometric MFI on GFP+ cells in co-culture), ratio 4.7 (geometric MFI): 6680
Transactivation (pSTAT4 geometric MFI on GFP+ cells in co-culture), ratio 9.5 (geometric MFI): 7760
Transactivation (pSTAT4 geometric MFI on GFP+ cells in co-culture), ratio 18.9 (geometric MFI): 8320
Transactivation (pSTAT4 geometric MFI on GFP+ cells in co-culture), ratio 37.9 (geometric MFI): 8030
Transactivation (pSTAT4 geometric MFI on GFP+ cells in co-culture); table head says ratio of 64, paragraph 725 gives 75.8 (geometric MFI): 8090
Substance: membrane bound IL12 encoded by OT-002011 (B7.1 transmembrane domain and short CD8 hinge domain) (ligand)

Bystander effect (pSTAT4 geometric MFI on GFP+ T cells in 1 hour supernatants), ratio 1.1 (geometric MFI): -136
Bystander effect (pSTAT4 geometric MFI on GFP+ T cells in 1 hour supernatants), ratio 2.1 (geometric MFI): -238
Bystander effect (pSTAT4 geometric MFI on GFP+ T cells in 1 hour supernatants), ratio 4.3 (geometric MFI): -277
Bystander effect (pSTAT4 geometric MFI on GFP+ T cells in 1 hour supernatants), ratio 8.5 (geometric MFI): -1180
Bystander effect (pSTAT4 geometric MFI on GFP+ T cells in 1 hour supernatants), ratio 17.1 (geometric MFI): -3000
Bystander effect (pSTAT4 geometric MFI on GFP+ T cells in 1 hour supernatants), ratio 34.1 (geometric MFI): -3720
Transactivation (pSTAT4 geometric MFI on GFP+ cells in co-culture), ratio 1.1 (geometric MFI): 4500
Transactivation (pSTAT4 geometric MFI on GFP+ cells in co-culture), ratio 2.1 (geometric MFI): 6100
Transactivation (pSTAT4 geometric MFI on GFP+ cells in co-culture), ratio 4.3 (geometric MFI): 7170
Transactivation (pSTAT4 geometric MFI on GFP+ cells in co-culture), ratio 8.5 (geometric MFI): 8200
Transactivation (pSTAT4 geometric MFI on GFP+ cells in co-culture), ratio 17.1 (geometric MFI): 7720
Transactivation (pSTAT4 geometric MFI on GFP+ cells in co-culture); table head says ratio of 64, paragraph 725 gives 34.1 (geometric MFI): 7700
Substance: membrane bound IL12 encoded by OT-001895 (p40 (23-328 of WT); (G4S)3; p35 (57-253 of WT); (GS)15; CD8a Hinge and Transmembrane Domain; GS) (ligand)

Bystander effect (pSTAT4 geometric MFI on GFP+ T cells in 1 hour supernatants), ratio 2.4 (geometric MFI): 405
Bystander effect (pSTAT4 geometric MFI on GFP+ T cells in 1 hour supernatants), ratio 4.8 (geometric MFI): 1050
Bystander effect (pSTAT4 geometric MFI on GFP+ T cells in 1 hour supernatants), ratio 9.7 (geometric MFI): 1650
Bystander effect (pSTAT4 geometric MFI on GFP+ T cells in 1 hour supernatants), ratio 19.4 (geometric MFI): 1470
Bystander effect (pSTAT4 geometric MFI on GFP+ T cells in 1 hour supernatants), ratio 38.7 (geometric MFI): 1470
Bystander effect (pSTAT4 geometric MFI on GFP+ T cells in 1 hour supernatants), ratio 77.5 (geometric MFI): 955
Transactivation (pSTAT4 geometric MFI on GFP+ cells in co-culture), ratio 2.4 (geometric MFI): 2620
Transactivation (pSTAT4 geometric MFI on GFP+ cells in co-culture), ratio 4.8 (geometric MFI): 3250
Transactivation (pSTAT4 geometric MFI on GFP+ cells in co-culture), ratio 9.7 (geometric MFI): 4030
Transactivation (pSTAT4 geometric MFI on GFP+ cells in co-culture), ratio 19.4 (geometric MFI): 4180
Transactivation (pSTAT4 geometric MFI on GFP+ cells in co-culture), ratio 38.7 (geometric MFI): 4860
Transactivation (pSTAT4 geometric MFI on GFP+ cells in co-culture); table head says ratio of 64, paragraph 725 gives 77.5 (geometric MFI): 5220
Substance: membrane bound IL12 encoded by OT-002096 (B7.1 TM domain and IgG1 CH2-CH3 domain as a hinge domain) (ligand)

Bystander effect (pSTAT4 geometric MFI on GFP+ T cells in 1 hour supernatants), ratio 1.3 (geometric MFI): -1
Bystander effect (pSTAT4 geometric MFI on GFP+ T cells in 1 hour supernatants), ratio 2.5 (geometric MFI): -818
Bystander effect (pSTAT4 geometric MFI on GFP+ T cells in 1 hour supernatants), ratio 5 (geometric MFI): -232
Bystander effect (pSTAT4 geometric MFI on GFP+ T cells in 1 hour supernatants), ratio 10.1 (geometric MFI): -988
Bystander effect (pSTAT4 geometric MFI on GFP+ T cells in 1 hour supernatants), ratio 20.2 (geometric MFI): -1400
Bystander effect (pSTAT4 geometric MFI on GFP+ T cells in 1 hour supernatants), ratio 40.4 (geometric MFI): -2660
Transactivation (pSTAT4 geometric MFI on GFP+ cells in co-culture), ratio 1.3 (geometric MFI): 5110
Transactivation (pSTAT4 geometric MFI on GFP+ cells in co-culture), ratio 2.5 (geometric MFI): 6070
Transactivation (pSTAT4 geometric MFI on GFP+ cells in co-culture), ratio 5 (geometric MFI): 7760
Transactivation (pSTAT4 geometric MFI on GFP+ cells in co-culture), ratio 10.1 (geometric MFI): 8120
Transactivation (pSTAT4 geometric MFI on GFP+ cells in co-culture), ratio 20.2 (geometric MFI): 8420
Transactivation (pSTAT4 geometric MFI on GFP+ cells in co-culture); table head says ratio of 64, paragraph 725 gives 40.4 (geometric MFI): 8020
Substance: membrane bound IL12 encoded by OT-002112 (B7.1 TM domain and FcgammaR2b (Fcgr2b) as a hinge domain) (ligand)
